The target in assay [1] is T1, IRF3 (endogenous, 293T cells) (human (endogenous in 293T)), Q14653.
T1 chain: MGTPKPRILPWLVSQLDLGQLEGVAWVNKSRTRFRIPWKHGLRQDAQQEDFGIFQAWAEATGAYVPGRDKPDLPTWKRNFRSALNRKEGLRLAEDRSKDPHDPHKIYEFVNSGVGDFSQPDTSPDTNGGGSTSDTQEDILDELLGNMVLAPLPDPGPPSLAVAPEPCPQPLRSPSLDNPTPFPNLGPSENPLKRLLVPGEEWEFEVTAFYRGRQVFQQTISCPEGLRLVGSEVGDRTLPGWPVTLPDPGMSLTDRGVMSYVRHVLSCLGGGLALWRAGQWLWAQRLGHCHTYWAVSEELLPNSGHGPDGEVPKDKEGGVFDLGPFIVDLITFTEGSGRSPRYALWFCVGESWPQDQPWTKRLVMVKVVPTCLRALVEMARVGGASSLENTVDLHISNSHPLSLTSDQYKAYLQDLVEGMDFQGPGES
As to the kind of experiment: native gel or EMSA. The note with it: remark: other sources report otherwise. For orientation: Mobility shift assays separate free from complexed probe on a gel.

Assay [2] concerns the target T2, IRF3 (endogenous, MEFs) (mouse (endogenous in MEFs)), P70671.
T2 chain: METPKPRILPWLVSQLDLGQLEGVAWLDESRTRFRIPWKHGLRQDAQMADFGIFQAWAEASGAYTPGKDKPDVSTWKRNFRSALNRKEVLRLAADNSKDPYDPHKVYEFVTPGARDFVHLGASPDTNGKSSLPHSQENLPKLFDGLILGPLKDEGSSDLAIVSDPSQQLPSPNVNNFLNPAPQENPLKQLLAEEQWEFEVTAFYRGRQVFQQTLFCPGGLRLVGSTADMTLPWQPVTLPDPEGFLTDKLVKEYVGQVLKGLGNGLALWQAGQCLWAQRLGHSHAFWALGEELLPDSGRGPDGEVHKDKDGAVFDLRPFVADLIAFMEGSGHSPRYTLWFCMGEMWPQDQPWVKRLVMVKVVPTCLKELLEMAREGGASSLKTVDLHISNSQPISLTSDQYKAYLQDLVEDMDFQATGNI
As to the kind of experiment: native gel or EMSA. Particulars: remark: other sources report otherwise.

B1: IRF3 (endogenous, 293T cells), Q14653 1-427 (natural protein)
chain: MGTPKPRILPWLVSQLDLGQLEGVAWVNKSRTRFRIPWKHGLRQDAQQEDFGIFQAWAEATGAYVPGRDKPDLPTWKRNFRSALNRKEGLRLAEDRSKDPHDPHKIYEFVNSGVGDFSQPDTSPDTNGGGSTSDTQEDILDELLGNMVLAPLPDPGPPSLAVAPEPCPQPLRSPSLDNPTPFPNLGPSENPLKRLLVPGEEWEFEVTAFYRGRQVFQQTISCPEGLRLVGSEVGDRTLPGWPVTLPDPGMSLTDRGVMSYVRHVLSCLGGGLALWRAGQWLWAQRLGHCHTYWAVSEELLPNSGHGPDGEVPKDKEGGVFDLGPFIVDLITFTEGSGRSPRYALWFCVGESWPQDQPWTKRLVMVKVVPTCLRALVEMARVGGASSLENTVDLHISNSHPLSLTSDQYKAYLQDLVEGMDFQGPGES
By stoichiometry N is commonly meant the number of molecules, sites or subunits per partner or assembly. In assay [1], B1 registered a stoichiometry N of 2.

B2: IRF3 (endogenous, MEFs), P70671 1-419 (natural protein)
chain: METPKPRILPWLVSQLDLGQLEGVAWLDESRTRFRIPWKHGLRQDAQMADFGIFQAWAEASGAYTPGKDKPDVSTWKRNFRSALNRKEVLRLAADNSKDPYDPHKVYEFVTPGARDFVHLGASPDTNGKSSLPHSQENLPKLFDGLILGPLKDEGSSDLAIVSDPSQQLPSPNVNNFLNPAPQENPLKQLLAEEQWEFEVTAFYRGRQVFQQTLFCPGGLRLVGSTADMTLPWQPVTLPDPEGFLTDKLVKEYVGQVLKGLGNGLALWQAGQCLWAQRLGHSHAFWALGEELLPDSGRGPDGEVHKDKDGAVFDLRPFVADLIAFMEGSGHSPRYTLWFCMGEMWPQDQPWVKRLVMVKVVPTCLKELLEMAREGGASSLKTVDLHISNSQPISLTSDQYKAYLQDLVEDMDFQATGNI
B2: in assay [2], the stoichiometry N was 2.

The values above are taken from paper PMC3939855.
